PMC3526264, “The C-terminus of Dpb2 is required for interaction with Pol2 and for cell viability” (Nucleic Acids Research, 2012)

Biological target: T1, Pol2 (S. cerevisiae, UniProt P21951 1-2222)
T1 construct: Pol2, catalytic subunit of DNA polymerase epsilon, S. cerevisiae; over-expression vector pJL1; also called catalytic subunit of DNA polymerase ε; source: S. cerevisiae pY116, galactose-induced over-expression (pJL1), co-expressed with the other Pol ε subunits
Test: co-purification (ion-exchange and size-exclusion chromatography); Pol2, Dpb2-201, Dpb3 and Dpb4 co-over-expressed in S. cerevisiae pY116; Pol ε purification protocol as in ref. 23; Coomassie-stained 10% SDS-PAGE, band intensities measured
Conditions: partners not purified

T1 sequence (P21951 whole entry): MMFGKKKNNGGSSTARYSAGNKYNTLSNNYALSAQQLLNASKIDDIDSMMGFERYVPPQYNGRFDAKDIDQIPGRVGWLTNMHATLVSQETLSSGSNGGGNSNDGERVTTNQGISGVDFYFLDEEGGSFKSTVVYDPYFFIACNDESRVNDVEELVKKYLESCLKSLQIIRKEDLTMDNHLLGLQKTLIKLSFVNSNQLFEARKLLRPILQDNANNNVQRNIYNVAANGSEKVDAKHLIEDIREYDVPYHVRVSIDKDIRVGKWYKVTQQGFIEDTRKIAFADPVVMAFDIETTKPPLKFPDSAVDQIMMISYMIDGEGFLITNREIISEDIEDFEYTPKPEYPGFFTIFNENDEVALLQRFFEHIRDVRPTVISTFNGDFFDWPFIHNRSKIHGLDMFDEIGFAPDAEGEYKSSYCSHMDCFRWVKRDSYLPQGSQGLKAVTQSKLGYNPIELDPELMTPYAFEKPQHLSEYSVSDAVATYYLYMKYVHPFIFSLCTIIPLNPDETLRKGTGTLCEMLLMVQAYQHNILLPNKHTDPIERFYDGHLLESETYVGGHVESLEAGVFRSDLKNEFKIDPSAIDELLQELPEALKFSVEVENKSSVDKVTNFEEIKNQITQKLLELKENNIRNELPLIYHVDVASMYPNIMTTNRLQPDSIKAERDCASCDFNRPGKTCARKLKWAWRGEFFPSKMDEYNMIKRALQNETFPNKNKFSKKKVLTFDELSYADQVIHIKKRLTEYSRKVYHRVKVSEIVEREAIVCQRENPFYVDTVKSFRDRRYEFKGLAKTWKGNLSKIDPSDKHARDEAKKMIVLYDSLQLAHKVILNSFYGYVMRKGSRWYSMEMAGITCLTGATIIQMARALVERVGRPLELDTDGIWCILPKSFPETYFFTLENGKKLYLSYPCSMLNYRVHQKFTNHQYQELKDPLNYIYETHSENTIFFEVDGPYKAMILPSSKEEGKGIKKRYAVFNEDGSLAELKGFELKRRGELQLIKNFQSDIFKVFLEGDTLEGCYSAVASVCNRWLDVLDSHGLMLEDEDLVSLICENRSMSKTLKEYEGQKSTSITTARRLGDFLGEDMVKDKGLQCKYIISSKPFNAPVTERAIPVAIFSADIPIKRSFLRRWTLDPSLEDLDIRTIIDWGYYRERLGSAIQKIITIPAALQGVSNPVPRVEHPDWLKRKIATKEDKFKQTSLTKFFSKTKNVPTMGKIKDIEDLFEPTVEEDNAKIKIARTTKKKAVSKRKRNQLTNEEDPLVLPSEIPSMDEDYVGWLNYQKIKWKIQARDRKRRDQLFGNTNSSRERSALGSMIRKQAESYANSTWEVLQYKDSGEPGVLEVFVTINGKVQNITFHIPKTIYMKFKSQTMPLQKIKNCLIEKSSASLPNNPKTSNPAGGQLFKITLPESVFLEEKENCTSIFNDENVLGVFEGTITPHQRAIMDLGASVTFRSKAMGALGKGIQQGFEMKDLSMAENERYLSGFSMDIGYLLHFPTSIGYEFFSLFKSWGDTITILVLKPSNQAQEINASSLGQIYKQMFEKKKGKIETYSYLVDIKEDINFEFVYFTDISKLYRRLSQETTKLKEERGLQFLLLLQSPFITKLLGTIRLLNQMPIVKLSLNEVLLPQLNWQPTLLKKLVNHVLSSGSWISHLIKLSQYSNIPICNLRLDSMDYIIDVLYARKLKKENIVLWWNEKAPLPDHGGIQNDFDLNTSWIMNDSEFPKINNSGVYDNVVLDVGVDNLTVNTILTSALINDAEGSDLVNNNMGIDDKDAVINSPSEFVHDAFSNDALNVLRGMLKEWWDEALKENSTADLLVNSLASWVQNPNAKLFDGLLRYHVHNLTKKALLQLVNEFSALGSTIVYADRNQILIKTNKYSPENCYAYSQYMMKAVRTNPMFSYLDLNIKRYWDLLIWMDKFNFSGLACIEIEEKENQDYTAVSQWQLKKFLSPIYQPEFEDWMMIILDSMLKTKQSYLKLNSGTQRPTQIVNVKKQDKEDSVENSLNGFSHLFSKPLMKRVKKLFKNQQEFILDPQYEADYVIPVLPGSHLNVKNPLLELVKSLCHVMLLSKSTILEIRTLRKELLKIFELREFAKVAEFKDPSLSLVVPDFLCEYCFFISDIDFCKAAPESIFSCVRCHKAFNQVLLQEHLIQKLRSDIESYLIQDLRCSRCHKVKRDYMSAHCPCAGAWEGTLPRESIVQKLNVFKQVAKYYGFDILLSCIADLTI

stoichiometry N | Binder
~1.1 Dpb3 per Pol2 | Dpb3 (natural protein, S. cerevisiae, UniProt P27344 1-201, looked up, Dpb3, subunit of DNA polymerase epsilon, S. cerevisiae; over-expression vector pJL5 (Dpb3 and Dpb4); source: S. cerevisiae pY116, galactose-induced over-expression (pJL5), co-expressed with the other Pol ε subunits) MSNLVKEKAPVFPISKVKKIAKCDPEYVITSNVAISATAFAAELFVQNLVEESLVLAQLNSKGKTSLRLSLNSIEECVEKRDNFRFLEDAIKQLKKNSALDKKRELNMQPGRSDQEVVIEEPELHEDDGVEEEEEEDEVSEEEEPVHNEELLDDSKDQQNDKSTRSVASLLSRFQYKSALDVGEHSDSSDIEVDHTKSTDP
~1.4 Dpb4 per Pol2 | Dpb4 (natural protein, S. cerevisiae, UniProt Q04603 1-196, looked up, Dpb4, subunit of DNA polymerase epsilon, S. cerevisiae; over-expression vector pJL5 (Dpb3 and Dpb4); source: S. cerevisiae pY116, galactose-induced over-expression (pJL5), co-expressed with the other Pol ε subunits) MPPKGWRKDAQGNYPTTSYIKEQENITIQDLLFPKSTIVNLAREVPQQSGKKLLINKDASLALQRGATVFVNHLLLFAREIAKSQDKKSCSVDDVLSALDHIGHSALKGPVRDKLDEYQAAVEQRKKEKLDSGEVDADGDIDMGEDKENVPVEKVKEHDEIEEQGDALQDVEESSEKKQKTESQDVETRVQNLEQT
